These results are taken from PMC2910040.

The target in data set [1] is T1, BLMHM (BLM helicase module) (Homo sapiens, UniProt P54132 642-1290). The data set can be described thus: fluorescence titration.
In data set [2] the target is T1, BLMHM (BLM helicase module). The data set can be described thus: HEX fluorescence change.
Data set [3] shares this target. The data set can be described thus: stopped-flow mdADP fluorescence amplitude titration.
The target is the same in data set [4]. Described as above. The source holds these as a separate data set.
For data set [5] the target is unchanged. Described as above. The source holds these as a separate data set.

T1 sequence (P54132 642-1290): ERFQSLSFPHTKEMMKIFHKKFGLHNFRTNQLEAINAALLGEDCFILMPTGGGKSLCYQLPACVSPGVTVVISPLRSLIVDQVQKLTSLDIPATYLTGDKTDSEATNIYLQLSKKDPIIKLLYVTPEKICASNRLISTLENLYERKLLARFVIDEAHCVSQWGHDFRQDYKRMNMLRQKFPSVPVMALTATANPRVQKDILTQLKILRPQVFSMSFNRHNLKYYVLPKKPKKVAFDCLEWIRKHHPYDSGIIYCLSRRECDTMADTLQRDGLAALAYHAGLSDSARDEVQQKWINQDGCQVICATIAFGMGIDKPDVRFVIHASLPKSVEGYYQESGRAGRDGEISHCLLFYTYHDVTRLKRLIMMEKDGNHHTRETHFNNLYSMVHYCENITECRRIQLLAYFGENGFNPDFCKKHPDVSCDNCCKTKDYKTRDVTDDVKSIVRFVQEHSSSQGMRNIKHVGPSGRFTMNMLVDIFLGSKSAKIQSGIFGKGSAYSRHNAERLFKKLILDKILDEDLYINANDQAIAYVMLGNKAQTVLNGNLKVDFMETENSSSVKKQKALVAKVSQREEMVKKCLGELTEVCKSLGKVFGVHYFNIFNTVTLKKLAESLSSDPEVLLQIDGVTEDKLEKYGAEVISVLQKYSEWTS

B1: DNA_2 (5'-HEX-DNA_54mer) (ssDNA)
DNA: CGTTGCGCAATTAAGCTCTAAGCCATCCGCAAAAATGACCTCTTATCAAAAGGA
As a reminder, the Kd is the equilibrium constant for the complex coming apart. A lower Kd goes with tighter binding. B1: in data set [1], the Kd turned out to be 100 ± 20 nM. For TTTTTTTTTTTTTTTTTTTT (ssDNA) [5'-HEX-dT20], the binding result in data set [2] was “binds”.

B2: dT54 (ssDNA)
DNA: TTTTTTTTTTTTTTTTTTTTTTTTTTTTTTTTTTTTTTTTTTTTTTTTTTTTTT
On to B2, for which, in data set [3], the Kd was < 100 nM.

Take TTTTTTTTTTTTTTTTTT (ssDNA) [dT18]: the dissociation constant Kd in data set [4] was < 100 nM. Consider TTTTTTTTTTTTTTTTTTTTTTTTTTTTTTTTTTTT (ssDNA) [dT36], for which, in data set [5], the Kd was < 100 nM.
